Results on ten molecules are retold here after patent publication US20220151977A1, “Generation Of Water-Soluble Cannabinoids Utilizing Protein Cannabinoid-Carriers” (Trait Biosciences, Inc., priority 2019, published 2022).

To fix the notation:
B1: 1 (protein)
chain: MTSTEKKDMKAVKGLDLERYMGRWYEIASFPSRFQPKDGVDTRATYTLNPDGTVHVLNETWNGGKRGFIQGSAYKADPKSDEAKLKVKFFVPPFLPVIPVTGDYWVLYIDPEYQHAVIGQPSRSYLWILSRTAHMEEETYKQLVEKAVEEGYDVSKLHKTPQSDTPPESNTAPDDTKGVWWLKSIFGK
modifications: Cluster63 Unique
B2: 33 (protein, listed as Macleaya cordata)
chain: MIRYSGRWFEVASLKRGFAGSGQEDCHCTQGVYTFDSEAPAIQVDTFCVHGGPDGYITGIRGKVQCLSEEDLEKNETDLEKRVMIREKCYLRFPTLPFIPKEPYDVIATDYDNFALVSGAKDTSFIQIYSRTPNPGPEFIEKYKSYLGNYGYDPSMIKDTPQ
B3: 30 (protein)
chain: MAYSGRWYEVASLKRGFAGEGQQDCHCTQGIYTPKEGGPEGAIKLEVDTFCVHGGPGGRLSGIQGSVSCADPLLLSYLPEFQTEMEMVEGFVAKCALRFDSLAFLPPEPYVVLRTDYTSYALVRGAKDRSFVQIYSRTPNPGAKFIAEQKAVLGQLGYPANDIVDTPQDCPEMAPQ
modifications: Micractinium conductrix
B4: SEQ ID NO. 30: PSC68250.1 lipocalin-like domain (partial), Micractinium conductrix (protein)
chain: B3 chain
modifications: Micractinium conductrix
notes: PSC68250.1 lipocalin-like domain (partial), Micractinium conductrix
B5: 10 (protein)
chain: MHVSTRQPCGAAPTAWPAQRPRSSPRRLACSAVLRDDARGVLQQAGLKLAAAAAAVLLAAPLHAGAASMPANAPLPALPPAPFDIEQSKQSKLLFDPMAYSGRWYEVASLKRGFAGEGQQDCHCTQGIYTPKEGGPEGAIKLEVDTFCVHGGPGGRLSGIQGSVSCADPLLLSYLPEFQTEMEMVEGFVAKCALRFDSLAFLPPEPYVVLRTDYTSYALVRGAKDRSFVQIYSRTPNPGAKFIAEQKAVLGQLGYPANDIVDTPQDCPEMAPQAMMAAMNRGMSSTPTMPASTPPALAMAGYDLGPAAVVLGEEAPAPVKGIAFDRLRNPLESLKNVFSLFN
modifications: Micractinium conductrix
B6: SEQ ID NO. 121: odorant-binding protein 1a-like, Mus caroli (Ryukyu mouse) (protein, listed as Mus caroli)
chain: MVKFLLLELAFGLAHAQMYGPWKTIAIAADNVDKMEISGELRLYFHQITCEKECKKMNVTFYVDENGQCSLTTITGYLQDDGKTYRSQFQGDNHYATVRTTPENIVFYSENVDRAGRKTKLVYVVGKNGSGSLK
B7: SEQ ID NO. 148: Odorant-binding protein, partial, Heterocephalus glaber (naked mole-rat) (protein)
chain: MINGDWCSIYIAADNVEKIEERGELRAYFCHIECQDECRNLSGGDRIMRNKHCCVGLSFRLDGVCQEFTVVGVKDEKSGVYITDYVGKNYFTVVESTEYITLFSNIIVDEKGTKMNVVLVAAKRDSLTEKEKQKFAQLAEEKGIPTENIRNVIAT
modifications: Heterocephalus glaber
B8: SEQ ID NO. 1: Cluster63 Unique, artificial consensus sequence based on a family of homologous plant lipocalin sequences (protein)
chain: B1 chain
modifications: Cluster63 Unique
B9: SEQ ID NO. 33: OVA10565.1 Lipocalin/cytosolic fatty-acid binding domain (partial), Macleaya cordata (protein, listed as Macleaya cordata)
chain: B2 chain
B10: SEQ ID NO. 10: PSC68250.1 lipocalin-like domain, Micractinium conductrix (green algae) (protein)
chain: B5 chain
modifications: Micractinium conductrix

The first test can be described thus: Ligand binding assay by ANS displacement, THC. The settings on record: FIG. 8; 2 μM protein, 20 μM ANS, 33 μM ligand, 20° C.
Consider B1, for which the “binding to THC by ANS displacement (relative change in fluorescence)” value is “bind to both THC and CBD”.

For the molecule B2, the “binding to THC by ANS displacement (relative change in fluorescence)” value is “bind to both THC and CBD”.

With B3, the “binding to THC by ANS displacement (relative change in fluorescence)” value was “bind to both THC and CBD”.

For B4, the “binding to THC by ANS displacement (relative change in fluorescence)” value is “binds to THC better than full length”.

Consider B5, for which the “binding to THC by ANS displacement (relative change in fluorescence)” value is “bind to both THC and CBD”.

Still in this test, the particulars now being: FIG. 8; 2 μM protein, 20 μM ANS, 33 μM ligand, 20° C.; listed as OBP2.
Regarding B6, the “binding to THC by ANS displacement (relative change in fluorescence)” value was “highest binding affinity”.

Still in this test, the particulars now being: Table 3; 2 μM protein, 20 μM ANS, 33 μM ligand, 20° C.
Turning to B7, the “Purification Status (binding to THC)” value is recorded as “Binds to THC”.

As to B8, the “Purification Status (binding to THC)” value is recorded as “Binds to CBD”.

As for B6, the “Purification Status (binding to THC)” value is “Binds to THC”.

Turning to B9, the “Purification Status (binding to THC)” value is listed as “Binds to CBD”.

Take B4: the “Purification Status (binding to THC)” value is recorded as “Binds to CBD”.

Consider B10, for which the “Purification Status (binding to THC)” value is on record as “Binds to CBD”.

Another test is described as follows: Ligand binding assay by ANS displacement, CBD. As to conditions: FIG. 8; 2 μM protein, 20 μM ANS, 33 μM ligand, 20° C.
B1: the “binding to CBD by ANS displacement (relative change in fluorescence)” value was “bind to both THC and CBD”.

Take B2: the “binding to CBD by ANS displacement (relative change in fluorescence)” value is “bind to both THC and CBD”.

As to B3, the “binding to CBD by ANS displacement (relative change in fluorescence)” value was “bind to both THC and CBD”.

On to B5, for which the “binding to CBD by ANS displacement (relative change in fluorescence)” value was “bind to both THC and CBD”.

The test is the same for the next values; noted with them: FIG. 8; 2 μM protein, 20 μM ANS, 33 μM ligand, 20° C.; listed as OBP2.
Turning to B6, the “binding to CBD by ANS displacement (relative change in fluorescence)” value is on record as “highest binding affinity”.

The test is the same for the next values; noted with them: Table 3; 2 μM protein, 20 μM ANS, 33 μM ligand, 20° C.
As for B7, the “Purification Status (binding to CBD)” value is “Binds to THC”.

For B8, the “Purification Status (binding to CBD)” value was “Binds to CBD”.

Take B6: the “Purification Status (binding to CBD)” value is recorded as “Binds to THC”.

In the case of B9, the “Purification Status (binding to CBD)” value was “Binds to CBD”.

As to B4, the “Purification Status (binding to CBD)” value is given as “Binds to CBD”.

B10: the “Purification Status (binding to CBD)” value is “Binds to CBD”.
